Source: IntAct's records for PubMed 24418540

Molecular target: pebb_human CBFB (UniProt Q13951)

With “Virion infectivity factor (Human immunodeficiency virus type 1 group M subtype B (isolate HXB2) (HIV-1)), P69723 W38A” the “effect of a mutation on the interaction” value was “decreasing interaction strength”.
In the case of “Virion infectivity factor (Human immunodeficiency virus type 1 group M subtype B (isolate HXB2) (HIV-1)), P69723 Y69A”, the “effect of a mutation on the interaction” value is reported as “decreasing interaction strength”.
With “Virion infectivity factor (Human immunodeficiency virus type 1 group M subtype B (isolate HXB2) (HIV-1)), P69723 W89A” the “effect of a mutation on the interaction” value was “disrupting interaction strength”.
With “Virion infectivity factor (Human immunodeficiency virus type 1 group M subtype B (isolate HXB2) (HIV-1)), P69723 W21A” the “effect of a mutation on the interaction” value was “disrupting interaction strength”.
For “Virion infectivity factor (Human immunodeficiency virus type 1 group M subtype B (isolate HXB2) (HIV-1)), P69723 E88A;W89A”, the “effect of a mutation on the interaction” value was “disrupting interaction strength”.
